The text below walks through data of PMC6100598, “Characterization of Small Molecules Inhibiting the Pro-Angiogenic Activity of the Zinc Finger Transcription Factor Vezf1” (Molecules : A Journal of Synthetic Chemistry and Natural …, 2018).

Where “and” joins values, the source holds several entries; their conditions need not be identical. Equal entries are not always repeated.

The target in data set [1] is T1, Vezf1 (recombinant His-Vezf1) (Mus musculus, UniProt Q5SXC4).
T1 construct: N-terminal His6 tag (pQE10), kept; E. coli XLBlue (MRF, T7); Ni-NTA; residue borders not given; native protein about 65 kDa, six C2H2 zinc fingers
T1 sequence (Q5SXC4 1-518): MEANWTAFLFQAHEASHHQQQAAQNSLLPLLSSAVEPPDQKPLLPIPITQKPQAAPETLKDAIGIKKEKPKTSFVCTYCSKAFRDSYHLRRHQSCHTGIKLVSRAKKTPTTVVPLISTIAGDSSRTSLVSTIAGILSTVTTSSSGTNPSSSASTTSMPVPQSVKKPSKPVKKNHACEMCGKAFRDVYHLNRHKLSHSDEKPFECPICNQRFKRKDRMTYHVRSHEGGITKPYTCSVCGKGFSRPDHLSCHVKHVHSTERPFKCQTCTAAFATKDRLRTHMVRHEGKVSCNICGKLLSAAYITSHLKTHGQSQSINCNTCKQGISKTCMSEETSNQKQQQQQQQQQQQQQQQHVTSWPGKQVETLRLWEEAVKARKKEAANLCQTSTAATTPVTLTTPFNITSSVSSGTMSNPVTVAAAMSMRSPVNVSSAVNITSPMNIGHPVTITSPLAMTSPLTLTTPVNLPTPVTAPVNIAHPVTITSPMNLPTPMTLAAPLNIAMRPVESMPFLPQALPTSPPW
The data set can be described thus: EMSA, inhibition of Vezf1 binding to […]-labelled DNA. Conditions: 1 μM or 640 nM (Figure 5C) Vezf1, 25 nM 32P-DNA (HS4-FPIII site), 10 min pre-incubation, 10 mM MgCl2, Hepes 7.5, room temperature; also called effective blocking concentration.

Data set [2] addresses T1, Vezf1 (recombinant His-Vezf1). The data set can be described thus: EMSA, single dose. Conditions: 640 nM Vezf1, 25 nM 32P-DNA, 10 min pre-incubation; residual DNA binding, not per cent inhibition; value without compound not given.
The target of a further data set is T2, Vezf1 (His-Vezf1) (UniProt Q5SXC4).
T2 sequence: T1 sequence (Q5SXC4 1-518)
Briefly: EMSA. Conditions: 20 mM Hepes pH 7.5, 10 mM MgCl2, 50 mM NaCl, 1 mM EDTA, 5 ng/uL poly dA.dT, 10 min at room temperature, 5% acrylamide gel in 0.5x TBE. In general terms: Mobility shift assays separate free from complexed probe on a gel.

Usually Kd stands for the concentration at which binding is half-saturated. The low end stands for a tighter complex, the high end for a looser complex.

In the case of `O=C(O)c1ccccc1NC(c1ccccc1)c1ccc2cccnc2c1O` (centres unmarked) [compound 1, NSC1012], in data set [1], the “Activity Concentration” value was ~ 500 μM.

With `Cc1c(S(=O)(=O)O)ccc(N=Nc2c(O)c(C(=O)O)cc3ccccc23)c1Cl` [compound 2, NSC16087], the “% DNA Bound in EMSA (500 μM)” value in data set [2] turned out to be 22.56%.

In the case of `NC(=O)c1nnn(Cc2cc(Cl)c(C(=O)c3ccc(Cl)cc3)c(Cl)c2)c1N` [compound 3, NSC609974], the “% DNA Bound in EMSA (500 μM)” value in data set [2] came to 38.45%.

Turning to “AGGCGCGCCCCGGTCCGGCGCTCCCCCCGCATCCCCGAGCCGGGGCGCGCCT (double strand) [HS4-FPIII Vezf1 site duplex]”, the binding signal in the data set with Vezf1 (His-Vezf1) (500 uM NSC1012, 640 nM Vezf1) was 7.38 % DNA bound; with Vezf1 (His-Vezf1) (500 uM T4 (503-1-83), 640 nM Vezf1, T4 effective at 20 uM (IC50)), 5.94 % DNA bound; in the data set with Vezf1 (His-Vezf1) (500 uM T6 (503-1-71 in text; 501-1-71 in Fig 5B legend), 640 nM Vezf1), 5.92 % DNA bound; with Vezf1 (His-Vezf1), 22.6 % DNA bound and 38.5 % DNA bound. For the same molecule, the Kd with Vezf1 (His-Vezf1) (no inhibitor, 25 nM DNA, 50-1000 nM protein) came to 640 nM.
